Measured values taken from patent US20100081612A1 (GENERAL HOSPITAL, published 2010).
Where two headings read alike, the source gives them in different places. Where no end group is shown, it is not given here. [ ]: non-standard residue; d: D form. Gly(1-amidinopiperidin-4-yl) = N=C(N)N1CCC([C@H](N)C(=O)O)CC1; Cha = N[C@@H](CC1CCCCC1)C(=O)O

T1: wild-type human PTHR (human, UniProt Q03431 27-593)
T1 construct: whole, on cells; also called PTHR-WT; intact PTHR
T1 sequence (looked up): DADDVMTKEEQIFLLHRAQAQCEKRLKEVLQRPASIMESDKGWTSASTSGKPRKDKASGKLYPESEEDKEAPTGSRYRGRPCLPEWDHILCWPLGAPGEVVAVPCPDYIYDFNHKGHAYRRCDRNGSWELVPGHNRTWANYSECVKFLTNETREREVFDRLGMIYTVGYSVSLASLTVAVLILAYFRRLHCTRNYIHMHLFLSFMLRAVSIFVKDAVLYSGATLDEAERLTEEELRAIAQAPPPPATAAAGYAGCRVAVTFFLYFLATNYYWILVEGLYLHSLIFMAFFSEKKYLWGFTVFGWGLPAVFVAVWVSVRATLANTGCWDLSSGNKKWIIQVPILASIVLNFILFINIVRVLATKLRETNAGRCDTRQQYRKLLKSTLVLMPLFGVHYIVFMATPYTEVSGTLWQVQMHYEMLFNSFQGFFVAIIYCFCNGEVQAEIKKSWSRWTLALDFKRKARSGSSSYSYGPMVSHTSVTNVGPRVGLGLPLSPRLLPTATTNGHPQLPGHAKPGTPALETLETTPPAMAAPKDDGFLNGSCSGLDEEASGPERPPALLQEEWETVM


What was measured:
wild-type human PTHR [1] = molecular target: T1, wild-type human PTHR; assay: competition binding, HKRK-B7 cells, 125I-PTH(1-34) tracer
wild-type human PTHR [2] = molecular target: T1, wild-type human PTHR; assay: as above; remark: listed apart in the source
Procedure: (§1) Receptor binding—Binding to the wild-type human PTHR in intact HKRK-B7 cells and ROS 17/2.8 cells was assessed using ¹²⁵I-PTH(1-34) as a tracer radioligand, as described (Shimizu, M., (2001) Endocrinology 142:3068-3074). In brief, the cells in 24-well plates (about 500,000 cells per well) were incubated in binding buffer containing radioligand (about 100,000 cpm per well) with or without unlabeled peptide ligand (3×10⁻⁹ to 1×10⁻⁵ M) for four hours at 15° C. The binding mixture was then removed by aspiration, the cells were rinsed three times with binding buffer, lysed in 1 M NaOH, and the entire lysate was counted for gamma-irradiation in a gamma counter. Binding to PTHR-delNt in COS-7 cell membranes was assessed in 96-well, vacuum filtration plates (Multiscreen-Durapore HV, […], Millipore Corp., Millford, Mass.) using ¹²⁵I-[Aib^{1,3},M]PTH(1-15)NH₂ as a tracer radioligand, as described (Dean, T., (2006) Mol Endocrinol 20:931-942). In brief, cell membranes (20 μg/well) were incubated in membrane binding buffer containing radioligand (30,000 cpm/well) with or without unlabeled peptide ligand (3×10⁻⁹ to 1×10⁻⁵ M) for 90 minutes at 21° C. The plates were then subject to rapid vacuum filtration, the filters were washed once with buffer, detached from the plate and counted for gamma-irradiation in a gamma counter. Non-specific binding was defined as the binding observed in the presence of 1×10⁻⁶ M PTH(1-31)NH₂ for HKRK-B7 and ROS 17/2.8 cells, and 1×10⁻⁶ M [Aib^{1,3},M]PTH(1-15)NH₂ for PTHR-delNt. Specifically bound radioactivity was calculated as a percentage of the radioactivity specifically bound in the absence of competing ligand.
Cyclohexylalanine and glutamate substitutions were introduced into [Ala¹,Arg¹⁹]hPTH(1-31)NH₂. The helical residue values were calculated from [θ]₂₂₂, the mean-residue elipticities observed in the CD spectra at 222 nm. Competition binding studies were performed in intact HKRK-B7 cells stably transfected with the hPTHR using ¹²⁵I-[Nle^{8,21},Tyr³⁴]rPTH(1-34)NH ₂ tracer radioligand, and in membranes prepared from COS-7 cells transiently transfected with hPTHR-delNt and a negative-dominant Gαs using ¹²⁵I-[Aib^{1,3},Nle⁸,Gln¹⁰,Har¹¹,Ala¹²,Trp¹⁴,Tyr¹⁵]rPTH(1-15)NH₂ tracer radioligand. Binding values (nM) are means (+/−s.e.m.) of data from the number of experiments indicated (n).

PTHR-delNt (human) = PTHR-delNt (human) (UniProt Q03431); assay: competition binding, COS-7 membranes, 125I-[Aib1,3,M]PTH(1-15) tracer
wild-type human PTHR [3] = molecular target: T1, wild-type human PTHR; assay: competition binding, HKRK-B7 cells, 125I-PTH(1-34) tracer; remark: listed apart in the source
Procedure: as §1
Alanine-Scan of the PTH(17-31) domain—Each residue in the (17-31) region of PTH(1-31)NH₂ was individually replaced with alanine and the effects of the substitutions on binding to the intact human PTHR stably expressed in HKRK-B7 cells was assessed. Competition binding studies were performed using whole cells and ¹²⁵I-PTH(1-34) (¹²⁵I-[Nle^{8,21},Tyr³⁴]ratPTH(1-34)NH₂) as a tracer radioligand.

Binder	fold change in binding affinity vs [Ala^1,Arg^19]PTH(1-31)NH2 (wild-type human PTHR [1]) [fold]	IC50 (wild-type human PTHR [2]) [nM]	IC50 (PTHR-delNt (human)) [nM]	fold change in binding affinity vs [Ala^1,Arg^19]PTH(1-31)NH2 (PTHR-delNt (human)) [fold]	fold reduction in binding affinity vs [Ala^1,Arg^19]PTH(1-31)NH2 (PTHR-delNt (human)) [fold]	fold reduction in binding affinity vs [Ala^1,Arg^19]PTH(1-31)NH2 (wild-type human PTHR [1]) [fold]	fold reduction in binding affinity vs PTH(1-31)NH2 (wild-type human PTHR [1]) [fold]	fold difference of IC50 from PTH(1-31)NH2 (PTHR-delNt (human)) [fold]	IC50 (wild-type human PTHR [3]) [nM]
AVSEIQLMHNLGKHLN[Cha]MRRVEWLRKKLQDV-NH2 (N-terminus assumed; SMILES CC[C@H](C)[C@H](NC(=O)[C@H](CCC(=O)O)NC(=O)[C@H](CO)NC(=O)[C@@H](NC(=O)[C@H](C)N)C(C)C)C(=O)N[C@@H](CCC(N)=O)C(=O)N[C@@H](CC(C)C)C(=O)N[C@@H](CCSC)C(=O)N[C@@H](Cc1c[nH]cn1)C(=O)N[C@@H](CC(N)=O)C(=O)N[C@@H](CC(C)C)C(=O)NCC(=O)N[C@@H](CCCCN)C(=O)N[C@@H](Cc1c[nH]cn1)C(=O)N[C@@H](CC(C)C)C(=O)N[C@@H](CC(N)=O)C(=O)N[C@@H](CC1CCCCC1)C(=O)N[C@@H](CCSC)C(=O)N[C@@H](CCCNC(=N)N)C(=O)N[C@@H](CCCNC(=N)N)C(=O)N[C@H](C(=O)N[C@@H](CCC(=O)O)C(=O)N[C@@H](Cc1c[nH]c2ccccc12)C(=O)N[C@@H](CC(C)C)C(=O)N[C@@H](CCCNC(=N)N)C(=O)N[C@@H](CCCCN)C(=O)N[C@@H](CCCCN)C(=O)N[C@@H](CC(C)C)C(=O)N[C@@H](CCC(N)=O)C(=O)N[C@@H](CC(=O)O)C(=O)N[C@H](C(N)=O)C(C)C)C(C)C) [[Ala^1,Arg^19]hPTH(1-31)NH2 Ser^17→Cha]	≤ 6	112	179	< 3					
AVSEIQLMHNLGKHLNS[Cha]RRVEWLRKKLQDV-NH2 (N-terminus assumed; SMILES CC[C@H](C)[C@H](NC(=O)[C@H](CCC(=O)O)NC(=O)[C@H](CO)NC(=O)[C@@H](NC(=O)[C@H](C)N)C(C)C)C(=O)N[C@@H](CCC(N)=O)C(=O)N[C@@H](CC(C)C)C(=O)N[C@@H](CCSC)C(=O)N[C@@H](Cc1c[nH]cn1)C(=O)N[C@@H](CC(N)=O)C(=O)N[C@@H](CC(C)C)C(=O)NCC(=O)N[C@@H](CCCCN)C(=O)N[C@@H](Cc1c[nH]cn1)C(=O)N[C@@H](CC(C)C)C(=O)N[C@@H](CC(N)=O)C(=O)N[C@@H](CO)C(=O)N[C@@H](CC1CCCCC1)C(=O)N[C@@H](CCCNC(=N)N)C(=O)N[C@@H](CCCNC(=N)N)C(=O)N[C@H](C(=O)N[C@@H](CCC(=O)O)C(=O)N[C@@H](Cc1c[nH]c2ccccc12)C(=O)N[C@@H](CC(C)C)C(=O)N[C@@H](CCCNC(=N)N)C(=O)N[C@@H](CCCCN)C(=O)N[C@@H](CCCCN)C(=O)N[C@@H](CC(C)C)C(=O)N[C@@H](CCC(N)=O)C(=O)N[C@@H](CC(=O)O)C(=O)N[C@H](C(N)=O)C(C)C)C(C)C) [[Ala^1,Arg^19]hPTH(1-31)NH2 Met^18→Cha]	≤ 6	87	408	< 3					
AVSEIQLMHNLGKHLNSMRRVEWLEKKLQDV-NH2 [[Ala^1,Arg^19]hPTH(1-31)NH2 Arg^25→Glu]		189	1630		4				
AVSEIQLMHNLGKHLNSMRRVEWLRKELQDV-NH2 [[Ala^1,Arg^19]hPTH(1-31)NH2 Lys^27→Glu]		156	1270						
AVSEIQLMHNLGKHLNSMRREEWLRKKLQDV-NH2 [[Ala^1,Arg^19]hPTH(1-31)NH2 Val^21→Glu]		447	1620		4	12			
AVSEIQLMHNLGKHLNSMRRVEWLREKLQDV-NH2 [[Ala^1,Arg^19]hPTH(1-31)NH2 Lys^26→Glu]		60	832						
AVSEIQLMHNLGKHLNSM[Cha]RVEWLRKKLQDV-NH2 (N-terminus assumed; SMILES CC[C@H](C)[C@H](NC(=O)[C@H](CCC(=O)O)NC(=O)[C@H](CO)NC(=O)[C@@H](NC(=O)[C@H](C)N)C(C)C)C(=O)N[C@@H](CCC(N)=O)C(=O)N[C@@H](CC(C)C)C(=O)N[C@@H](CCSC)C(=O)N[C@@H](Cc1c[nH]cn1)C(=O)N[C@@H](CC(N)=O)C(=O)N[C@@H](CC(C)C)C(=O)NCC(=O)N[C@@H](CCCCN)C(=O)N[C@@H](Cc1c[nH]cn1)C(=O)N[C@@H](CC(C)C)C(=O)N[C@@H](CC(N)=O)C(=O)N[C@@H](CO)C(=O)N[C@@H](CCSC)C(=O)N[C@@H](CC1CCCCC1)C(=O)N[C@@H](CCCNC(=N)N)C(=O)N[C@H](C(=O)N[C@@H](CCC(=O)O)C(=O)N[C@@H](Cc1c[nH]c2ccccc12)C(=O)N[C@@H](CC(C)C)C(=O)N[C@@H](CCCNC(=N)N)C(=O)N[C@@H](CCCCN)C(=O)N[C@@H](CCCCN)C(=O)N[C@@H](CC(C)C)C(=O)N[C@@H](CCC(N)=O)C(=O)N[C@@H](CC(=O)O)C(=O)N[C@H](C(N)=O)C(C)C)C(C)C) [[Ala^1,Arg^19]hPTH(1-31)NH2 Arg^19→Cha]	≤ 6	233	780	< 3					
SVSEIQLMHNLGKHLNSME[Gly(1-amidinopiperidin-4-yl)]VEWLRKKLQDV-NH2 (N-terminus assumed; SMILES CC[C@H](C)[C@H](NC(=O)[C@H](CCC(=O)O)NC(=O)[C@H](CO)NC(=O)[C@@H](NC(=O)[C@@H](N)CO)C(C)C)C(=O)N[C@@H](CCC(N)=O)C(=O)N[C@@H](CC(C)C)C(=O)N[C@@H](CCSC)C(=O)N[C@@H](Cc1c[nH]cn1)C(=O)N[C@@H](CC(N)=O)C(=O)N[C@@H](CC(C)C)C(=O)NCC(=O)N[C@@H](CCCCN)C(=O)N[C@@H](Cc1c[nH]cn1)C(=O)N[C@@H](CC(C)C)C(=O)N[C@@H](CC(N)=O)C(=O)N[C@@H](CO)C(=O)N[C@@H](CCSC)C(=O)N[C@@H](CCC(=O)O)C(=O)N[C@H](C(=O)N[C@H](C(=O)N[C@@H](CCC(=O)O)C(=O)N[C@@H](Cc1c[nH]c2ccccc12)C(=O)N[C@@H](CC(C)C)C(=O)N[C@@H](CCCNC(=N)N)C(=O)N[C@@H](CCCCN)C(=O)N[C@@H](CCCCN)C(=O)N[C@@H](CC(C)C)C(=O)N[C@@H](CCC(N)=O)C(=O)N[C@@H](CC(=O)O)C(=O)N[C@H](C(N)=O)C(C)C)C(C)C)C1CCN(C(=N)N)CC1) [PTH(1-31)NH2 Arg^20→PipGly]			6600				~200	< 4	14100
